Data taken from patent US20180222996A1 (SCOTT AND WHITE HEALTHCARE SWH, published 2018).

Molecular target: T1, Human CD123 on stably transfected CHO-K1 cells (CHO-CD123) (human, UniProt P26951 19-378)
T1 construct: whole, on cells; also called IL-3 receptor alpha subunit; cell surface CD123
Test: flow cytometry on CHO-CD123 cells, 1 µg/ml
Protocol: Log phase growing monolayer cells were harvested with trypsin/EDTA solution (ATCC) and washed once with culture media and once with PBS containing 1% BSA. 1×10⁶ cells were resuspended in 200 μl staining solution (PBS, 1% BSA, 3% normal goat serum and indicated concentration of 12F1, 12F1scFv-Fc or CD123xCD3 BIf) at room temperature for 1 hour. Human IgG1 (Sigma) was used as a control. Cells were rinsed twice with PBS containing 1% BSA and incubated with PE-conjugated goat anti-human or anti-mouse antibody (Jackson Lab) at room temperature for 1 hour. Cells were thrice washed with PBS containing 1% BSA, resuspended in 500 μl of PBS and analyzed on a Beckman Coulter Cytomic FC 500 flow cytometry.
The abilities of 12F1scFv-Fc and CD123xCD3 BIf to bind cell surface CD123 were examined by flow cytometry using CHO-K1 and CHO-CD123. 12F1 murine monoclonal antibody was used as a positive control. […] The binding affinities were tested in cell-based ELISA with CHO-CD123 cells.

T1 sequence (P26951 19-378): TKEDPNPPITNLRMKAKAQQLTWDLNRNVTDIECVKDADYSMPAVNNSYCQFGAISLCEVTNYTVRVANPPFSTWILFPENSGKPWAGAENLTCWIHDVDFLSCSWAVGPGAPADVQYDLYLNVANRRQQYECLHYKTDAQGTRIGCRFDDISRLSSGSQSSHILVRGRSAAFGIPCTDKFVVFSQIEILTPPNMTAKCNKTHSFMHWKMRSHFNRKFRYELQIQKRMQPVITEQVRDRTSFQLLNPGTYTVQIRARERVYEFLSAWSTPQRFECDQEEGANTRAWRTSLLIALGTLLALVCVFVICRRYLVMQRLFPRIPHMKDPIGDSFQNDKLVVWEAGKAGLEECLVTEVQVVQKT

B1: 12F1 murine anti-human CD123 monoclonal antibody (antibody, V domains shown)
VH: VQLQESGPGLVKPSQSLSLTCSVTDYSITSGYYWNWIRQFPGNKLEWMGYISYDGSNNYNPSLKNRISITRDTSKNQFFLKLSSVTTEDTATYYCSRGEGFYFDSWGQGTTLTVSS
VL: DIMMSQSPSSLAVSVGEKFTMTCKSSQSLFFGSTQKNYLAWYQQKPGQSPKLLIYWASTRESGVPDRFTGSGSGTDFTLAISSVMPEDLAVYYCQQYYNYPWTFGGGTKLEIK
notes: Murine monoclonal antibody from hybridoma
B1: binds.
